Measured values as given in paper PMC4347646 (The Journal of Cell Biology, 2015).

Biological target: T1, Rab13 Q67L (in the Rab13 biosensor) (human, UniProt P51153 1-203, Q67L)
T1 sequence: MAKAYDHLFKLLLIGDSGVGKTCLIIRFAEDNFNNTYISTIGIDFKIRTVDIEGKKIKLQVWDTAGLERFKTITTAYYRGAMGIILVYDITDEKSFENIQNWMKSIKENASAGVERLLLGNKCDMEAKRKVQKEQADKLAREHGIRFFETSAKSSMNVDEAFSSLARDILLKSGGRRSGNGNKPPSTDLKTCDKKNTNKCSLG
Test: FRET or BRET

B1: RBD of MICAL-L2 (in the Rab13 biosensor) (domain or fragment)
chain: not shown
FRET/mCer ratio, higher than in the Rab13 T22N biosensor: 53%
